Assay results taken from patent publication US20180009892A1 (EUREKA THERAPEUTICS, published 2018).

Key:
[1] = molecular target: T1, human ROR1 extracellular domain (ECD) protein (human, UniProt Q01973 30-406); assay: competitive phage ELISA: soluble ROR1 against ROR1-coated plate
T1 construct: also called hROR1-ECD; human ROR1-ECD
Method: Purified phage antibodies were first diluted serially in PBST buffer, and tested for binding to a ROR1-coated plate. The dilution that gave 50-80% saturating signal was used in the solution binding assay in which phage were first incubated with increasing concentration of ROR1 for one to two hours, and then transferred to a ROR1-coated plate for 10-15 minutes to capture the unbound phage.

human ROR2-ECD = molecular target: T2, human ROR2-ECD (human, UniProt Q01974 34-403); assay: protein ELISA, phage
T2 construct: extracellular domain; also called hROR2
T2 sequence (Q01974 34-403): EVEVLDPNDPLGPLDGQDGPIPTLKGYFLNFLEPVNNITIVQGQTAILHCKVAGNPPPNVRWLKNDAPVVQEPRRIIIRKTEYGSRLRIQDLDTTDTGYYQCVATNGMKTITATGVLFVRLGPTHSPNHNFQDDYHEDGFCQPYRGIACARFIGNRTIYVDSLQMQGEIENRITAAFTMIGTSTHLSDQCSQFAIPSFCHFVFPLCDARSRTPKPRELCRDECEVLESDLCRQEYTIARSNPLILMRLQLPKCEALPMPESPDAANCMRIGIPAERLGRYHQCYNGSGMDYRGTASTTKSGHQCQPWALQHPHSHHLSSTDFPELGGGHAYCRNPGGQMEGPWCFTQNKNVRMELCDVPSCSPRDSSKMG

T1 sequence (Q01973 30-406 limits assumed): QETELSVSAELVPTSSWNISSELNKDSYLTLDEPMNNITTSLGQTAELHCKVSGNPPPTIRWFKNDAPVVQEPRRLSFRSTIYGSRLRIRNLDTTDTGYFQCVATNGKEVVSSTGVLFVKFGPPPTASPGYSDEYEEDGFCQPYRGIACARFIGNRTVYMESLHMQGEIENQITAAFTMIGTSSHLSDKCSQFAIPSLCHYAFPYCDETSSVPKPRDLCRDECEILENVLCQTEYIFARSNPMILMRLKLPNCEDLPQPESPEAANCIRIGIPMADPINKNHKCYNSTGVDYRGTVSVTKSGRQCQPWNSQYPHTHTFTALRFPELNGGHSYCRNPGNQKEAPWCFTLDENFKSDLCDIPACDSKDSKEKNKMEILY

Row | Binder | IC50 [1] [nM] | binding result (human ROR2-ECD)
1 | P601-69 (scFv, V domains shown) VH: QVQLVQSGAEVKKPGESLKISCKGSGYSFTSYWIGWVRQMPGKGLEWMGIIYPGDSDTRYSPSFQGQVTISADKSISTAYLQWSSLKASDTAMYYCARLSSSSYDAFDIWGQGTMVTVSS VL: QSALTQPASVSGSPGQSITISCTGTSSDVGGYNYVSWYQQHPGKAPKLMIYDVSNRPSGVSNRFSGSKSGNTASLTISGLQAEDEADYYCSSYTSSSIPWVFGGGTKLTVL | 9.81 | no binding
2 | P601-102 (scFv, V domains shown) VH: QMQLVQSGGDLVQPGGSLRLSCAASGFTFSSYSMNWVRQAPGKGLEWVSSISSSSSYIYYADSVKGRFTISRDNAKNSLYLQMNSLRAEDTAVYYCARGLGGWTHDAFDIWGQGTTVTVSS VL: QSALTQPASVSGSPGQSITISCTGTSSDVGGYNYVSWYQQHPGKAPKLMIYDVSKRPSGVSNRFSGSKSGNTASLTISGLQAEDEADYYCSSYTSSSTSVVFGGGTKLTVL | 10.2 | no binding
3 | P601-9 (scFv, V domains shown) VH: QLQLQESGPGVVKPSGTLSLTCTVSGGSISRSDGYWGWVRQPPGKGLEWIGSIYDTGTTYYSPSLKSRLIISVDTSKNQFSLTLNSVTAADTAVYYCASMGGLRSSSSDAFHTWGPGTMVTVSS VL: QSVLTQPPSVSVAPGETARITCGGTNIGSESVHWYQQRPGQAPVLVVYDDTDRPSGIPERFSGSNSGNTATLTISRVEAGDGADYYCQVWDSVSDRYVFGTGTKVTVL | 14.6 | no binding
4 | P601-119 (scFv, V domains shown) VH: QVQLVQSGGGLVKPGGSLRLSCAASGFTFGTYSMNWVRQAPGKGLEWVSSISSSSSYIYYADSVKGRFTISRDNAKNSLYLQMNSLRAEDTAVYYCARGLGGWTHDAFDIWGQGTTVTVSS VL: QSALTQPASVSASPGQSITISCTGTSSDVGGYNYVTWYQQHPGKAPKLMIYDVSKRPSGVLDRFSGSKSGNTASLTISGLQAEDEADYFCSSYTSSSTLVFGGGTKLTVLG | 17.7 | no binding
5 | P601-50 (scFv, V domains shown) VH: QVQLQQSGAEVKKPGASVKVSCKASGYTFSRYYIHWVRRAPGQGLEWMGLINPGGGSTNYAQKFQGRVTMTRDTSTNTVYLELSSLRSDDTAVYYCARDYGTIDARRFDFWGQGTLVTVSS VL: QSALTQPPSASGTPGQRVTISCPGSSSNIGSNYVYWYQQLPGTAPKLLIYRNNQRPSGVPDRFSGSKSGTSATLGITGLQTGDEADYYCGTWDSSLSAYVFGTGTKVTVL | 24.1 | no binding
6 | P601-70 (scFv, V domains shown) VH: EVQLVQSGAELKKPGSSVRVSCKTSGGSFKTHGISWVRQAPGQGLEWMGWINPNSGGALYVDNFQGRATMTRDTSINTAYMELRSLSSDDTAVYYCARGMADLIDVFDIWGQGTMVTVSS VL: TQPALTQPASVSGSPGQSITISCTGTSSDFGDYDYVSWYQQHPGKAPKLMIYDVSDRPSGVSNRFSGSKSGNTASLTISGLQAEDEADYFCSSFTTSSTLVFGGGTKLTVL | 74 | no binding
7 | P601-128 (scFv, V domains shown) VH: EVQLVQSGAEVKKPGESLKISCKGSGYSFSRYWIGWVRQMPGKGLEWMGIIYPRDSDTRYSPSFQGQVTISADKSISTAYLQWSSLKASDTAMYYCATPVVTAGAFDIWGQGTMVTVSS VL: DIQMTQSPSSVSASVGDRVTITCRASQGISSWLAWYQQKPGKAPKLLIYAASSLQSGVPSRFSGSGSGTDFTLTISSLQPEDFATYYCQQANSFPLTFGGGTKVEIK | 263 | no binding
8 | P601-108 (scFv, V domains shown) VH: QLQLQESGPGLVKPSETLSLTCTVSGGSISSNSYYWGWIRQPPGKGLEWIGSIYYSGSTYYNPSLKSRVTISVDTSKNQFSLKLGSVTAADTAVYYCARHDGTDAFDIWGQGTTVTVSS VL: QSVVTQPPSVSAAPGQKVTISCSGSSSNIGKNYVSWYQQFPGTAPKLLIYDNNERPSGIPARFSGSKSGTSATLGITGLQTGDEADYYCATFDTSLWAAVFGGGTKLTVL | 0.76 | no binding
